# Data published in paper PMC3514216, “SRC Homology 2 Domain Binding Sites in Insulin, IGF-1 and FGF receptor mediated signaling networks reveal an extensive potential interactome” (Cell Communication and Signaling : CCS, 2012).
# Non-standard residues stand in square brackets, D forms with d. No end group written: not given here. pY = N[C@@H](Cc1ccc(OP(=O)(O)O)cc1)C(=O)O
# T1: GST-Abl1 SH2 domain (human, UniProt P00519 127-217)
# T1 construct: SH2 domain of Abl1; source: E. coli BL21, purified (glutathione sepharose, NAP-10)
# T1 sequence (looked up): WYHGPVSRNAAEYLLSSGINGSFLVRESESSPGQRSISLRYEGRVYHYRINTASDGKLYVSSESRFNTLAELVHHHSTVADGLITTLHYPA
# T2: GST-Itk SH2 domain (human, UniProt Q08881 239-338)
# T2 construct: SH2 domain of Itk; source: E. coli BL21, purified (glutathione sepharose, NAP-10)
# T2 sequence (looked up): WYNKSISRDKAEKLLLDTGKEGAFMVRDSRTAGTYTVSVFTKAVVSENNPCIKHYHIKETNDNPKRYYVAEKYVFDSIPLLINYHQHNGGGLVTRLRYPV
# T3: GST-Abl2 SH2 domain (human, UniProt P42684 173-263)
# T3 construct: SH2 domain of Abl2; source: E. coli BL21, purified (glutathione sepharose, NAP-10)
# T3 sequence (looked up): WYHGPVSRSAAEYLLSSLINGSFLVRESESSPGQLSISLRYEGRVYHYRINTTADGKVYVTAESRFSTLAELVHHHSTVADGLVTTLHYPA
# T4: GST-Sh3bp2 SH2 domain (human, UniProt P78314 457-555)
# T4 construct: SH2 domain of Sh3bp2; source: E. coli BL21, purified (glutathione sepharose, NAP-10)
# T4 sequence (looked up): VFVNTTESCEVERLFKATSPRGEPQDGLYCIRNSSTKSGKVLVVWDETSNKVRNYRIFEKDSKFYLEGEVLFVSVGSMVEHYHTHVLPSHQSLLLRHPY
# T5: GST-Shc1 SH2 domain (human, UniProt P29353 488-579)
# T5 construct: SH2 domain of Shc1; source: E. coli BL21, purified (glutathione sepharose, NAP-10)
# T5 sequence (looked up): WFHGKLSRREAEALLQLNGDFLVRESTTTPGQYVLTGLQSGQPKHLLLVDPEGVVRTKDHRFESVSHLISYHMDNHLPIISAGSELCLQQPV
# T6: GST-Vav1 SH2 domain (human, UniProt P15498 671-765)
# T6 construct: SH2 domain of Vav1; source: E. coli BL21, purified (glutathione sepharose, NAP-10)
# T6 sequence (looked up): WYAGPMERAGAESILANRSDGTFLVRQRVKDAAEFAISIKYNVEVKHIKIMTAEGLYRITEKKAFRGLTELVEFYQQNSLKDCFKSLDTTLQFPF
# T7: GST-Ship2 SH2 domain (human, UniProt O15357 21-117)
# T7 construct: SH2 domain of Ship2; source: E. coli BL21, purified (glutathione sepharose, NAP-10)
# T7 sequence (looked up): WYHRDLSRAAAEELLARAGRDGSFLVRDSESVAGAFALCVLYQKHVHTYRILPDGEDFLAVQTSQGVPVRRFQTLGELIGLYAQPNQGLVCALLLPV
# T8: GST-Sh2d1b SH2 domain (human, UniProt O14796 5-101)
# T8 construct: SH2 domain of Sh2d1b (Eat-2); also called Eat-2; source: E. coli BL21, purified (glutathione sepharose, NAP-10)
# T8 sequence (looked up): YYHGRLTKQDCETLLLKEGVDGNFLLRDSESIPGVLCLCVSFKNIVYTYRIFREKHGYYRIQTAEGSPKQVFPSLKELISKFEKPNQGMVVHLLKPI
# T9: GST-Tenc1 SH2 domain (human, UniProt Q63HR2 1140-1247)
# T9 construct: source: E. coli BL21, purified (glutathione sepharose, NAP-10)
# T9 sequence (looked up): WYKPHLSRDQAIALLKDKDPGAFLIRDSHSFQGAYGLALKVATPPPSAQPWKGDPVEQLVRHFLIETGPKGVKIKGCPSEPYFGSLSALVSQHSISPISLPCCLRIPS
# Assays:
# Conditions in all cases: both partners purified
# GST-Abl1 SH2 domain = target: T1, GST-Abl1 SH2 domain; assay: fluorescence polarisation; Rhodamine B-labelled peptide in solution with SH2 domain; Beacon 2000; as previously described [40]
# GST-Fer SH2 domain = target: T10, GST-Fer SH2 domain (human, UniProt P16591 460-550); assay: as above
# T10 construct: SH2 domain of Fer; source: E. coli BL21, purified (glutathione sepharose, NAP-10)
# GST-Fgr SH2 domain = target: T11, GST-Fgr SH2 domain (human, UniProt P09769 144-241); assay: as above
# T11 construct: SH2 domain of Fgr; source: E. coli BL21, purified (glutathione sepharose, NAP-10)
# GST-Itk SH2 domain = target: T2, GST-Itk SH2 domain; assay: as above
# GST-Abl2 SH2 domain = target: T3, GST-Abl2 SH2 domain; assay: as above
# GST-Nck1 SH2 domain = target: T12, GST-Nck1 SH2 domain (human, UniProt P16333 282-376); assay: as above
# T12 construct: SH2 domain of Nck1; source: E. coli BL21, purified (glutathione sepharose, NAP-10)
# GST-Sh3bp2 SH2 domain = target: T4, GST-Sh3bp2 SH2 domain; assay: as above
# GST-Shc1 SH2 domain = target: T5, GST-Shc1 SH2 domain; assay: as above
# GST-Src SH2 domain = target: T13, GST-Src SH2 domain (human, UniProt P12931 151-248); assay: as above
# T13 construct: SH2 domain of Src; source: E. coli BL21, purified (glutathione sepharose, NAP-10)
# GST-Vav1 SH2 domain = target: T6, GST-Vav1 SH2 domain; assay: as above
# GST-Brk SH2 domain = target: T14, GST-Brk SH2 domain (human, UniProt Q13882 78-170); assay: as above
# T14 construct: SH2 domain of Brk; source: E. coli BL21, purified (glutathione sepharose, NAP-10)
# GST-Crk SH2 domain = target: T15, GST-Crk SH2 domain (human, UniProt P46108 13-118); assay: as above
# T15 construct: SH2 domain of Crk; source: E. coli BL21, purified (glutathione sepharose, NAP-10)
# GST-CrkL SH2 domain = target: T16, GST-CrkL SH2 domain (human, UniProt P46109 14-102); assay: as above
# T16 construct: SH2 domain of CrkL; source: E. coli BL21, purified (glutathione sepharose, NAP-10)
# GST-Ship2 SH2 domain = target: T7, GST-Ship2 SH2 domain; assay: as above
# GST-Yes SH2 domain = target: T17, GST-Yes SH2 domain (human, UniProt P07947 158-255); assay: peptide or protein array; SPOT array of 192 membrane-bound 11-mer phosphotyrosine peptides; GST-SH2 0.25 uM in TBS-T with 5% nonfat milk and 1 mM DTT, 1.5 h, room temperature; anti-GST and Alexa-Fluor-680 secondary, Li-Cor Odyssey; array positive >3X the array mean, array negative <1X, indeterminate between
# T17 construct: SH2 domain of the kinase Yes; source: E. coli BL21, purified (glutathione sepharose, NAP-10)
# GST-Sh2d1b SH2 domain = target: T8, GST-Sh2d1b SH2 domain; assay: fluorescence polarisation; Rhodamine B-labelled peptide in solution with SH2 domain; Beacon 2000; as previously described [40]
# GST-Shb SH2 domain = target: T18, GST-Shb SH2 domain (human, UniProt Q15464 410-504); assay: as above
# T18 construct: SH2 domain of Shb; source: E. coli BL21, purified (glutathione sepharose, NAP-10)
# GST-Grb2 SH2 domain = target: T19, GST-Grb2 SH2 domain (human, UniProt P62993 60-152); assay: as above
# T19 construct: SH2 domain of Grb2; source: E. coli BL21, purified (glutathione sepharose, NAP-10)
# GST-Sh2b SH2 domain = target: T20, GST-Sh2b SH2 domain (human, UniProt Q9NRF2 527-625); assay: as above
# T20 construct: SH2 domain of Sh2b; source: E. coli BL21, purified (glutathione sepharose, NAP-10)
# GST-Tenc1 SH2 domain = target: T9, GST-Tenc1 SH2 domain; assay: as above
# T16 sequence (P46109 14-102): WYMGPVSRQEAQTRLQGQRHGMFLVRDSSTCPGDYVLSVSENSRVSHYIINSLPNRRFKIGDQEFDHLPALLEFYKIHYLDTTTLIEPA
# T15 sequence (P46108 13-118): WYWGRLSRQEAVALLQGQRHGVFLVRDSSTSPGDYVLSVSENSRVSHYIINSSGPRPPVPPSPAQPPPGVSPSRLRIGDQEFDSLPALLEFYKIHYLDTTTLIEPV
# T19 sequence (P62993 60-152): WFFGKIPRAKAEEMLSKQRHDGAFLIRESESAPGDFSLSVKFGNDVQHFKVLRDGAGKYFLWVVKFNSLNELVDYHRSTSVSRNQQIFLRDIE
# T18 sequence (Q15464 410-504): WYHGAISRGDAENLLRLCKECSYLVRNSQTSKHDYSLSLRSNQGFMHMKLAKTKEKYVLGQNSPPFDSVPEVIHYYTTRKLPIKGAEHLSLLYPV
# T17 sequence (P07947 158-255): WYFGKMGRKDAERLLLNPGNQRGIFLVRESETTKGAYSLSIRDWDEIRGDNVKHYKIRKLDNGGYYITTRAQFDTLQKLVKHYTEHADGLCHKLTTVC
# T14 sequence (Q13882 78-170): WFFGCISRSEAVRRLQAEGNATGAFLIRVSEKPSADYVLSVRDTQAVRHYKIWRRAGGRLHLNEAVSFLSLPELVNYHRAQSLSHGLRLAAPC
# T10 sequence (P16591 460-550): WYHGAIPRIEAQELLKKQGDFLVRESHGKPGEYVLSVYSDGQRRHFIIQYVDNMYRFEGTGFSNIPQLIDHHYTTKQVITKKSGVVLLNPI
Binder,Kd (GST-Abl1 SH2 domain) [µM],Kd (GST-Abl2 SH2 domain) [µM],Kd (GST-Nck1 SH2 domain) [µM],Kd (GST-Src SH2 domain) [µM],Kd (GST-Crk SH2 domain) [µM],Kd (GST-CrkL SH2 domain) [µM],other results
"KEEG[pY]ELPYNP (not fully specified (N-terminus); also: Rhodamine B label, site not given here, p62DOK1 around Y398; source: synthetic peptide (FMOC chemistry), purified by LC/MS) [p62DOK1 (Y398) phosphopeptide KEEGpYELPYNP, Rhodamine B-labelled]",5.77,3.47,4.37,5.06,23.7,,Kd (GST-Fer SH2 domain): 13.3 µM; Kd (GST-Fgr SH2 domain): 2.04 µM; Kd (GST-Itk SH2 domain): 5.43 µM; Kd (GST-Sh3bp2 SH2 domain): 1.68 µM; Kd (GST-Shc1 SH2 domain): 5.74 µM; Kd (GST-Vav1 SH2 domain): 4.73 µM; Kd (GST-Brk SH2 domain): 0.42 µM
"GVSE[pY]ELPEDP (not fully specified (N-terminus); also: Rhodamine B label, site not given here, FGFR1 around Y463; also called FGFR1 pY-463; source: synthetic peptide (FMOC chemistry), purified by LC/MS) [FGFR1 (Y463) phosphopeptide GVSEpYELPEDP, Rhodamine B-labelled]",,,2.45,6.85,44,> 50,Kd (GST-Vav1 SH2 domain): 1.87 µM
"AEDV[pY]DVPPPA (not fully specified (N-terminus); also: Rhodamine B label, site not given here, p130Cas (BCAR1) around Y362; source: synthetic peptide (FMOC chemistry), purified by LC/MS) [p130Cas (Y362) phosphopeptide AEDVpYDVPPPA, Rhodamine B-labelled]",,14,0.93,,0.35,0.99,Kd (GST-Shc1 SH2 domain): 32.8 µM; Kd (GST-Ship2 SH2 domain): 16.5 µM
"EQDE[pY]DIPRHL (also: membrane-bound on SPOT array, p130Cas (BCAR1) around Y234; source: synthetic peptide, SPOT synthesis on cellulose membrane) [p130Cas (Y234) peptide EQDEYDIPRHL, SPOT array]",,,,,,,binding result (GST-Yes SH2 domain): binds
"STDE[pY]LDLSAP (also: Rhodamine B label, site not given here, FGFR3 around Y760; source: synthetic peptide (FMOC chemistry), purified by LC/MS) [FGFR3 (Y760) phosphopeptide STDEpYLDLSAP, Rhodamine B-labelled]",,27,,,,,Kd (GST-Sh2d1b SH2 domain): 5.3 µM; Kd (GST-Shb SH2 domain): > 50 µM
"SPGE[pY]VNIEFG (also: Rhodamine B label, site not given here, IRS-1 around Y896; source: synthetic peptide (FMOC chemistry), purified by LC/MS) [IRS-1 (Y896) phosphopeptide SPGEpYVNIEFG, Rhodamine B-labelled]",7.48,3.66,,2.21,> 20,,Kd (GST-Grb2 SH2 domain): 0.8 µM; Kd (GST-Sh2b SH2 domain): 3.58 µM; Kd (GST-Tenc1 SH2 domain): 24 µM
"NGLN[pY]IDLDLV (not fully specified (N-terminus); also: Rhodamine B label, site not given here, IRS-1 around Y1179; source: synthetic peptide (FMOC chemistry), purified by LC/MS) [IRS-1 (Y1179) phosphopeptide NGLNpYIDLDLV, Rhodamine B-labelled]",22.2,,,9.94,,> 50,Kd (GST-Grb2 SH2 domain): > 50 µM
